From patent publication US20240124563A1

Tests used:
[1] = biological target: human MSLN full-length protein on transfected cells (CHO-K1-hMSLN clones 2C8, 2D11, 2C5; HEK293T-hMSLN clones B8, 2A4, 2A7) (human) (UniProt Q13421); experiment: FACS, CHO-K1-hMSLN-2C8 cells, antibody 0.8 nM
[2] = biological target: human MSLN full-length protein, recombinant, on CHO-K1 or HEK293T cells (human) (UniProt Q13421); experiment: competitive FACS on CHO-K1-human MSLN-2C8 cells vs Biotin-Tab142; competitor at 0.032 nM
human MSLN full-length protein, recombinant, on CHO-K1 or HEK293T cells (human), sequence (Q13421 other isoform, or with tags, fused parts or gaps limits assumed): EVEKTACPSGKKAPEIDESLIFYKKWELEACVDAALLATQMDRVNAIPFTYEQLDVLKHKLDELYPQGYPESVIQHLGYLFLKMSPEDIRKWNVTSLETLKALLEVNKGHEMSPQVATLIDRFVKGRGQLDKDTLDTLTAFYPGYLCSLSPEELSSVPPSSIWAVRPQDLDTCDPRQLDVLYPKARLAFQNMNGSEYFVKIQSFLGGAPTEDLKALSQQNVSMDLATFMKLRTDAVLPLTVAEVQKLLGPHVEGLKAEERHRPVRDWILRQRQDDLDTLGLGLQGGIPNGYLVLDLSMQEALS

[3] = biological target: human MSLN protein endogenously expressed on tumor cells (Hela, OVCAR3) (human) (UniProt Q13421); experiment: FACS, OVCAR3 cells, antibody 2 nM
human MSLN protein endogenously expressed on tumor cells (Hela, OVCAR3) (human), sequence (Q13421 other isoform, or with tags, fused parts or gaps): as the sequence (Q13421 other isoform, or with tags, fused parts or gaps limits assumed) above, with P14R counted along it

[4] = biological target: human MSLN full-length protein, recombinant, on CHO-K1 or HEK293T cells (human) (UniProt Q13421); experiment: competitive FACS on CHO-K1-human MSLN-2C8 cells vs Biotin-Tab142; competitor at 0.00256 nM
[5] = biological target: human MSLN full-length protein, recombinant, on CHO-K1 or HEK293T cells (human) (UniProt Q13421); experiment: competitive FACS on CHO-K1-human MSLN-2C8 cells vs Biotin-Tab131; competitor at 0.064 nM
[6] = biological target: human MSLN full-length protein, recombinant, on CHO-K1 or HEK293T cells (human) (UniProt Q13421); experiment: competitive FACS on CHO-K1-human MSLN-2C8 cells vs Biotin-Tab142; competitor at 40 nM
[7] = biological target: human MSLN protein endogenously expressed on tumor cells (Hela, OVCAR3) (human) (UniProt Q13421); experiment: FACS, OVCAR3 cells, antibody 0.2 nM
[8] = biological target: monkey MSLN full-length protein on HEK293T cells (monkey); experiment: FACS, HEK293T-monkey-MSLN cells, antibody 0.032 nM
[9] = biological target: human MSLN protein endogenously expressed on tumor cells (Hela, OVCAR3) (human) (UniProt Q13421); experiment: FACS, OVCAR3 cells, antibody 0.16 nM
[10] = biological target: human MSLN full-length protein, recombinant, on CHO-K1 or HEK293T cells (human) (UniProt Q13421); experiment: competitive FACS on CHO-K1-human MSLN-2C8 cells vs Biotin-Tab142; competitor at 0.32 nM
[11] = biological target: human MSLN full-length protein, recombinant, on CHO-K1 or HEK293T cells (human) (UniProt Q13421); experiment: FACS, HEK293T-hMSLN-B8 cells, antibody 0.2 nM
[12] = biological target: monkey MSLN full-length protein on HEK293T cells (monkey); experiment: FACS, HEK293T-monkey-MSLN cells, antibody 0.00128 nM
[13] = biological target: human MSLN full-length protein, recombinant, on CHO-K1 or HEK293T cells (human) (UniProt Q13421); experiment: FACS, HEK293T-hMSLN-B8 cells, antibody 20 nM
[14] = biological target: human MSLN protein endogenously expressed on tumor cells (Hela, OVCAR3) (human) (UniProt Q13421); experiment: FACS, OVCAR3 cells, antibody 4 nM
[15] = biological target: monkey MSLN full-length protein on HEK293T cells (monkey); experiment: FACS, HEK293T-monkey-MSLN cells, antibody 20 nM
[16] = biological target: human MSLN full-length protein on transfected cells (CHO-K1-hMSLN clones 2C8, 2D11, 2C5; HEK293T-hMSLN clones B8, 2A4, 2A7) (human) (UniProt Q13421); experiment: FACS, CHO-K1-hMSLN-2C8 cells, antibody 0.00128 nM
[17] = biological target: chimeric human MSLN-R3 / chicken MSLN-R1-2 protein on HEK293T cells (clone A5) (chicken; human); experiment: FACS, HEK293T-hR3/chickR1-2-A5 cells, antibody 0.2 nM
chimeric human MSLN-R3 / chicken MSLN-R1-2 protein on HEK293T cells (clone A5) (chicken; human), sequence (Q13421 495-614, change not shown): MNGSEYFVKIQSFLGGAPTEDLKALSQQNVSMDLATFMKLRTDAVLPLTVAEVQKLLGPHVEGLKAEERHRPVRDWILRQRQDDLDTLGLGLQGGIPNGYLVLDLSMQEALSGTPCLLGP

[18] = biological target: human MSLN full-length protein, recombinant, on CHO-K1 or HEK293T cells (human) (UniProt Q13421); experiment: competitive FACS on CHO-K1-human MSLN-2C8 cells vs Biotin-Tab131; competitor at 1.6 nM
[19] = biological target: human MSLN protein endogenously expressed on tumor cells (Hela, OVCAR3) (human) (UniProt Q13421); experiment: FACS, OVCAR3 cells, antibody 0.032 nM
[20] = biological target: human MSLN full-length protein, recombinant, on CHO-K1 or HEK293T cells (human) (UniProt Q13421); experiment: competitive FACS on CHO-K1-human MSLN-2C8 cells vs Biotin-Tab142; competitor at 0.0064 nM
[21] = biological target: human MSLN full-length protein on transfected cells (CHO-K1-hMSLN clones 2C8, 2D11, 2C5; HEK293T-hMSLN clones B8, 2A4, 2A7) (human) (UniProt Q13421); experiment: FACS, CHO-K1-hMSLN-2C8 cells, antibody 0.032 nM
[22] = biological target: human MSLN protein endogenously expressed on tumor cells (Hela, OVCAR3) (human) (UniProt Q13421); experiment: FACS, OVCAR3 cells, antibody 0.0064 nM
[23] = biological target: human MSLN full-length protein, recombinant, on CHO-K1 or HEK293T cells (human) (UniProt Q13421); experiment: competitive FACS on CHO-K1-human MSLN-2C8 cells vs Biotin-Tab142; competitor at 0.8 nM
[24] = biological target: monkey MSLN full-length protein on HEK293T cells (monkey); experiment: FACS, HEK293T-monkey-MSLN cells, antibody 0.0064 nM
[25] = biological target: human MSLN full-length protein, recombinant, on CHO-K1 or HEK293T cells (human) (UniProt Q13421); experiment: competitive FACS on CHO-K1-human MSLN-2C8 cells vs Biotin-Tab142; competitor at 20 nM
[26] = biological target: human MSLN protein endogenously expressed on tumor cells (Hela, OVCAR3) (human) (UniProt Q13421); experiment: FACS, OVCAR3 cells, antibody 0.00128 nM
[27] = biological target: monkey MSLN full-length protein on HEK293T cells (monkey); experiment: FACS, HEK293T-monkey-MSLN cells, antibody 100 nM
[28] = biological target: human MSLN full-length protein, recombinant, on CHO-K1 or HEK293T cells (human) (UniProt Q13421); experiment: FACS, HEK293T-hMSLN-B8 cells

human MSLN full-length protein on transfected cells (CHO-K1-hMSLN clones 2C8, 2D11, 2C5; HEK293T-hMSLN clones B8, 2A4, 2A7) (human), sequence (Q13421 other isoform, or with tags, fused parts or gaps limits assumed): as the sequence (Q13421 other isoform, or with tags, fused parts or gaps limits assumed) above

FACS signal (MFI) [1]: 80
MFI of Biotin-Tab142 [2]: 43700
MFI [3]: 255
MFI of Biotin-Tab142 [4]: 24300
MFI of Biotin-Tab131 [5]: 12500
MFI of Biotin-Tab142 [6]: 23600
MFI [7]: 106
FACS signal (MFI) [8]: 125
FACS signal (MFI) [9]: 74
MFI of Biotin-Tab142 [10]: 23300
MFI [11]: 65
FACS signal (MFI) [12]: 84
MFI [13]: 68
FACS signal (MFI) [14]: 74
FACS signal (MFI) [15]: 84
FACS signal (MFI) [16]: 116
MFI [17]: 73
MFI of Biotin-Tab131 [18]: 12600
FACS signal (MFI) [19]: 75
MFI of Biotin-Tab142 [20]: 43700
FACS signal (MFI) [21]: 59
FACS signal (MFI) [22]: 74
MFI of Biotin-Tab142 [23]: 44300
FACS signal (MFI) [24]: 85
MFI of Biotin-Tab142 [25]: 42600
FACS signal (MFI) [26]: 75
FACS signal (MFI) [27]: 127
Max MFI [28]: 77
Substance: hIgG1 (antibody)
